Experimental data: paper doi:10.1101/2024.04.30.591959, “Structural insights into human propionyl-CoA carboxylase (PCC) and 3-methylcrotonyl-CoA carboxylase (MCC)” (bioRxiv, 2024)

T1: human 3-methylcrotonyl-CoA carboxylase α subunit (human (endogenous in Expi 293F), UniProt Q96RQ3 42-725, biotin covalently linked to K681 (AMKM motif of the BCCP domain))
T1 construct: 3-methylcrotonyl-CoA carboxylase α subunit (MCCα), human, endogenous; holds the BC, BT and BCCP domains; Purified as part of the endogenous α6β6 MCC holoenzyme, in a mixture with the other biotin-dependent carboxylases; also called MCCα; α subunit of MCC; source: endogenous, Expi 293F cells, purified (Strep-Tactin XT resin, size-exclusion chromatography)
T1 sequence (looked up): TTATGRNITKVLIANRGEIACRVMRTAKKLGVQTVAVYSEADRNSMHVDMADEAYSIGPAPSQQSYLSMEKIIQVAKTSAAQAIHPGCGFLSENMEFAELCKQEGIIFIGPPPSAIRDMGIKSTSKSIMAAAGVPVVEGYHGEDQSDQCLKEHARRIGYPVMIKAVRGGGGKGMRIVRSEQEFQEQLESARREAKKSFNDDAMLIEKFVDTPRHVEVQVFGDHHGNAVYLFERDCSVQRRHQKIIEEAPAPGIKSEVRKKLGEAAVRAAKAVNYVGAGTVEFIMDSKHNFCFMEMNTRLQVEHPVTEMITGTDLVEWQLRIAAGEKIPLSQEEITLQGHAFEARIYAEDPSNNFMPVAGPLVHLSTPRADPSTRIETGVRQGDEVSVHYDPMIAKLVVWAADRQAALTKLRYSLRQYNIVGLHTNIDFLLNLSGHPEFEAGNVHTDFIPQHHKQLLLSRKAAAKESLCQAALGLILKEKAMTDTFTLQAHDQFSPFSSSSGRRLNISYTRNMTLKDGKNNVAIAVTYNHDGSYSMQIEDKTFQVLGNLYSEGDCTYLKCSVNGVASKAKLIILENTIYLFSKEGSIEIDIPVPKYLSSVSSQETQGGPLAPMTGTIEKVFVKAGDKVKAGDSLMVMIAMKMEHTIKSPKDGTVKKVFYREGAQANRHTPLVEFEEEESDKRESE

T2: human propionyl-CoA carboxylase α subunit (human (endogenous in Expi 293F), UniProt P05165 53-728, biotin covalently linked to K694 (AMKM motif of the BCCP domain))
T2 construct: Propionyl-CoA carboxylase α subunit (PCCα), human, endogenous; holds the BC, BT and BCCP domains; Purified as part of the endogenous α6β6 PCC holoenzyme, in a mixture with the other biotin-dependent carboxylases; also called PCCα; α subunit of PCC; source: endogenous, Expi 293F cells, purified (Strep-Tactin XT resin, size-exclusion chromatography)
T2 sequence (looked up): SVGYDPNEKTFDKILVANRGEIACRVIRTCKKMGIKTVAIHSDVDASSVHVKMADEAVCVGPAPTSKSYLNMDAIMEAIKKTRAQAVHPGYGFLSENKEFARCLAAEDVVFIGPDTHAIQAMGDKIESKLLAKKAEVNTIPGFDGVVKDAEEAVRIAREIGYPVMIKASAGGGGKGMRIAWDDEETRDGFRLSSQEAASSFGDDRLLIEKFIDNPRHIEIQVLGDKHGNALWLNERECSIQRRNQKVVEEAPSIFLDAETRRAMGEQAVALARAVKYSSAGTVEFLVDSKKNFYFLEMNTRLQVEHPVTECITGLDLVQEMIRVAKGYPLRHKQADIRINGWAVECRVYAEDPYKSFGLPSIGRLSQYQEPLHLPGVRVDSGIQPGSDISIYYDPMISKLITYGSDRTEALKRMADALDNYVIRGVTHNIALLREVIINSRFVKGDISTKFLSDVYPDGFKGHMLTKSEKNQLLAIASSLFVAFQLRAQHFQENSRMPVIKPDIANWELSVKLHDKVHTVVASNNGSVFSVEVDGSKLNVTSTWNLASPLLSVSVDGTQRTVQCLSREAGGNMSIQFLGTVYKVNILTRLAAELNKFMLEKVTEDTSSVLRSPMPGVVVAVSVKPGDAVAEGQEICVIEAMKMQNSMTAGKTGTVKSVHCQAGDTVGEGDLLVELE

B1: human 3-methylcrotonyl-CoA carboxylase β subunit (natural protein, human (endogenous in Expi 293F), UniProt Q9HCC0 23-563, looked up)
chain: YHGDSVASLGTQPDLGSALYQENYKQMKALVNQLHERVEHIKLGGGEKARALHISRGKLLPRERIDNLIDPGSPFLELSQFAGYQLYDNEEVPGGGIITGIGRVSGVECMIIANDATVKGGAYYPVTVKKQLRAQEIAMQNRLPCIYLVDSGGAYLPRQADVFPDRDHFGRTFYNQAIMSSKNIAQIAVVMGSCTAGGAYVPAMADENIIVRKQGTIFLAGPPLVKAATGEEVSAEDLGGADLHCRKSGVSDHWALDDHHALHLTRKVVRNLNYQKKLDVTIEPSEEPLFPADELYGIVGANLKRSFDVREVIARIVDGSRFTEFKAFYGDTLVTGFARIFGYPVGIVGNNGVLFSESAKKGTHFVQLCCQRNIPLLFLQNITGFMVGREYEAEGIAKDGAKMVAAVACAQVPKITLIIGGSYGAGNYGMCGRAYSPRFLYIWPNARISVMGGEQAANVLATITKDQRAREGKQFSSADEAALKEPIIKKFEEEGNPYYSSARVWDDGIIDPADTRLVLGLSFSAALNAPIEKTDFGIFRM
notes: 3-methylcrotonyl-CoA carboxylase β subunit (MCCβ), human, endogenous; CT domain (CT-N and CT-C subdomains); Co-purified with the biotinylated α subunit as the endogenous α6β6 MCC holoenzyme; also called MCCβ; β subunit of MCC; source: endogenous, Expi 293F cells, purified (Strep-Tactin XT resin, size-exclusion chromatography)
B2: human propionyl-CoA carboxylase β subunit (natural protein, human (endogenous in Expi 293F), UniProt P05166 29-539, looked up)
chain: CSQATSVNERIENKRRTALLGGGQRRIDAQHKRGKLTARERISLLLDPGSFVESDMFVEHRCADFGMAADKNKFPGDSVVTGRGRINGRLVYVFSQDFTVFGGSLSGAHAQKICKIMDQAITVGAPVIGLNDSGGARIQEGVESLAGYADIFLRNVTASGVIPQISLIMGPCAGGAVYSPALTDFTFMVKDTSYLFITGPDVVKSVTNEDVTQEELGGAKTHTTMSGVAHRAFENDVDALCNLRDFFNYLPLSSQDPAPVRECHDPSDRLVPELDTIVPLESTKAYNMVDIIHSVVDEREFFEIMPNYAKNIIVGFARMNGRTVGIVGNQPKVASGCLDINSSVKGARFVRFCDAFNIPLITFVDVPGFLPGTAQEYGGIIRHGAKLLYAFAEATVPKVTVITRKAYGGAYDVMSSKHLCGDTNYAWPTAEIAVMGAKGAVEIIFKGHENVEAAQAEYIEKFANPFPAAVRGFVDDIIQPSSTRARICCDLDVLASKKVQRPWRKHANIPL
notes: Propionyl-CoA carboxylase β subunit (PCCβ), human, endogenous; CT domain (CT-N and CT-C subdomains); Co-purified with the biotinylated α subunit as the endogenous α6β6 PCC holoenzyme; also called PCCβ; β subunit of PCC; source: endogenous, Expi 293F cells, purified (Strep-Tactin XT resin, size-exclusion chromatography)

Legend:
Experiment in all cases: cryo-EM structure; endogenous holoenzymes co-purified from Expi 293F cells as a mixture of biotin-dependent carboxylases; HBS buffer (20 mM HEPES, pH 7.4, 150 mM NaCl); apo, or pre-incubated with 25 mM NaHCO3, 10 mM MgCl2 and 10 mM propionyl-CoA or acetyl-CoA, 10 mM ATP added before freezing
[1] = biological target: the molecule itself
[2] = biological target: T1, human 3-methylcrotonyl-CoA carboxylase …; details: both partners purified
[3] = biological target: T2, human propionyl-CoA carboxylase α …; details: both partners purified

Binder	stoichiometry N [1]	binding result [2]	binding result [3]
B1	6	binds	
B2			binds
